Like-named read-outs stand apart in the source and are kept apart here. Positions of bridges follow the written chain, without caps; N, C: chain ends. Non-standard residues stand in square brackets, D forms with d. Primed or numbered codes have the meaning given here. No end group written: not given here. *: point of attachment. X10 = 1‑((2,4-dinitrophenyl)sulfonyl)piperidin‑4‑yl carbamate, O=C(OC1CCN(S(=O)(=O)c2ccc([N+](=O)[O-])cc2[N+](=O)[O-])CC1)*; X9 = 1‑((5-chloro-2-methoxyphenyl)sulfonyl)piperidin‑4‑yl carbamate, COc1ccc(Cl)cc1S(=O)(=O)N1CCC(OC(=O)*)CC1; X11 = 1‑((3-fluorophenyl)sulfonyl)piperidin‑4‑yl carbamate, O=C(OC1CCN(S(=O)(=O)c2cccc(F)c2)CC1)*; X8 = 1‑((4-chlorophenyl)sulfonyl)piperidin‑4‑yl carbamate, O=C(OC1CCN(S(=O)(=O)c2ccc(Cl)cc2)CC1)*; X13 = 1‑((2-fluorophenyl)sulfonyl)piperidin‑4‑yl carbamate, O=C(OC1CCN(S(=O)(=O)c2ccccc2F)CC1)*; X12 = 1‑(mesitylsulfonyl)piperidin‑4‑yl carbamate, Cc1cc(C)c(S(=O)(=O)N2CCC(OC(=O)*)CC2)c(C)c1; X5 = 1‑acetyl‑4‑phenethylpiperidin‑4‑yl carbamate, CC(=O)N1CCC(CCc2ccccc2)(OC(=O)*)CC1; X4 = 1‑(phenylsulfonyl)piperidin‑4‑yl carbamate, O=C(OC1CCN(S(=O)(=O)c2ccccc2)CC1)*; X3 = 4‑benzylpiperidin‑4‑yl carbamate, O=C(OC1(Cc2ccccc2)CCNCC1)*; X1 = 4‑phenylpiperidin‑4‑yl carbamate, O=C(OC1(c2ccccc2)CCNCC1)*; X7 = 1‑acetylpiperidin‑4‑yl carbamate, CC(=O)N1CCC(OC(=O)*)CC1; kbt″ = ketobenzothiazole (C-terminal Arg), c1ccc2sc(*)nc2c1; kbt = C-terminal Arg ketobenzothiazole; Fmoc = O=C(OCC1c2ccccc2-c2ccccc21)*; kt = C-terminal Arg ketothiazole; Cha = N[C@@H](CC1CCCCC1)C(=O)O
Legend:
Test in all cases: cell-based or functional assay
[1] = target: T1, recombinant N-terminal His-tag HGFA serine protease domain (UniProt Q04756 373-655)
T1 sequence (looked up): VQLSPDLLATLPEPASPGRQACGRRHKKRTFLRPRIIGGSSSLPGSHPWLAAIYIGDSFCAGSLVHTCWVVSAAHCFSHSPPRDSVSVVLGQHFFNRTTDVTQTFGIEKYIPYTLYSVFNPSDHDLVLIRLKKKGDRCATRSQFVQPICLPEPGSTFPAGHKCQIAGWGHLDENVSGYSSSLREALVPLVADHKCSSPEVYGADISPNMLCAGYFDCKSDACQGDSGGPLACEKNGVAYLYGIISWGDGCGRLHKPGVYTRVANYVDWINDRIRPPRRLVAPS

[2] = target: T2, activated hepsin (#4776-SE-010, R&D Systems) (UniProt P05981 45-417, limits assumed)
T2 sequence (P05981 45-417 limits assumed): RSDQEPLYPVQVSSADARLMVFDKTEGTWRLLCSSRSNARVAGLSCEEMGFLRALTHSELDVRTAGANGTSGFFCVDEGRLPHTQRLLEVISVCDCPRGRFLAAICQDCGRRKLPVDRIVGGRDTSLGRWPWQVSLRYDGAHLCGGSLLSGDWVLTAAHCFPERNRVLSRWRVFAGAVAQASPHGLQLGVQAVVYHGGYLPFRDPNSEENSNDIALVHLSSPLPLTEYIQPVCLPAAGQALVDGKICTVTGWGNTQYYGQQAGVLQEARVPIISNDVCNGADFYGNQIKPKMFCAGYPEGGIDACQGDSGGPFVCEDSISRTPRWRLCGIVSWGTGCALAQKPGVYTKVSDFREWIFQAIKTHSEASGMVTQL

[3] = target: T3, matriptase (#3946-SE-010, R&D Systems) (UniProt Q9Y5Y6 615-855)
T3 sequence (looked up): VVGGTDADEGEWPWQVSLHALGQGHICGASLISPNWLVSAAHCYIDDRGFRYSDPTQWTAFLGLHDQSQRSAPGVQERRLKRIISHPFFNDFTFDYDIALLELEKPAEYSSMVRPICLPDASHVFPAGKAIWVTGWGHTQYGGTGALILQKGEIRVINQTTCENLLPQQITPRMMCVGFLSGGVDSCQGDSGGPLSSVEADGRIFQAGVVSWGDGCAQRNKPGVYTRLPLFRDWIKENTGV

[4] = target: T1, recombinant N-terminal His-tag HGFA …; remark: listed apart in the source
human TMPRSS2 = human TMPRSS2 (human, UniProt O15393 1-492)
Sequence of human TMPRSS2 (O15393 whole entry): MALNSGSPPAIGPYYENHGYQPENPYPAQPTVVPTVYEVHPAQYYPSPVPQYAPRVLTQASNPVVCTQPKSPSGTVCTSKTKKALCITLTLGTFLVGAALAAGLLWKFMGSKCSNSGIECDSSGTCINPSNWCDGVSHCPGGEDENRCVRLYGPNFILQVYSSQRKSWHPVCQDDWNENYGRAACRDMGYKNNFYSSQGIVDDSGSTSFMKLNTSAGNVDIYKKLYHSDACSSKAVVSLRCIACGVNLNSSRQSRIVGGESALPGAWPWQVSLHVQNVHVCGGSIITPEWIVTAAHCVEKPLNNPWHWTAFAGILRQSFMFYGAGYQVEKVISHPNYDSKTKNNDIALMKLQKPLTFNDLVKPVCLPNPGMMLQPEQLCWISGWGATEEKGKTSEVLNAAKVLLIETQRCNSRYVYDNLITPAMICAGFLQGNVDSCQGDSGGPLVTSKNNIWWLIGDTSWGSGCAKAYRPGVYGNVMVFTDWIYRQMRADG

[5] = target: T2, activated hepsin (#4776-SE-010, R&D …); remark: listed apart in the source
[6] = target: T3, matriptase (#3946-SE-010, R&D Systems); remark: listed apart in the source
[7] = target: T4, recombinant thrombin (#1473-SE-010, R&D Systems) (UniProt P00734 44-622)
[8] = target: T5, Factor Xa (#1063-SE-010, R&D Systems) (UniProt P00742 41-488, limits assumed)
T5 sequence (P00742 41-488 limits assumed): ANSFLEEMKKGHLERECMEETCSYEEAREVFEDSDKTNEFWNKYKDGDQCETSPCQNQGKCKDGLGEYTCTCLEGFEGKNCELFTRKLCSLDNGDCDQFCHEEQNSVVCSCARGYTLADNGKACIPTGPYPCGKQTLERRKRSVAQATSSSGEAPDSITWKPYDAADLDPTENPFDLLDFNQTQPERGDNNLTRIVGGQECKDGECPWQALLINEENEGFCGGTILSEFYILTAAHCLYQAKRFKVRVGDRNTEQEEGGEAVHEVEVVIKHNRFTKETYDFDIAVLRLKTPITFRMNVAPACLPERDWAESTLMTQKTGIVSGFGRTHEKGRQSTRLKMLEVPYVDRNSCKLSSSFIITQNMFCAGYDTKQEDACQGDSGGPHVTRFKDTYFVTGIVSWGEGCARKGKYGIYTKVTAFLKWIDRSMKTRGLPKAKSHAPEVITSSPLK

[9] = target: T6, KLK5 (#1108-SE-010, R&D Systems) (UniProt Q9Y337 23-293, limits assumed)
T6 sequence (looked up): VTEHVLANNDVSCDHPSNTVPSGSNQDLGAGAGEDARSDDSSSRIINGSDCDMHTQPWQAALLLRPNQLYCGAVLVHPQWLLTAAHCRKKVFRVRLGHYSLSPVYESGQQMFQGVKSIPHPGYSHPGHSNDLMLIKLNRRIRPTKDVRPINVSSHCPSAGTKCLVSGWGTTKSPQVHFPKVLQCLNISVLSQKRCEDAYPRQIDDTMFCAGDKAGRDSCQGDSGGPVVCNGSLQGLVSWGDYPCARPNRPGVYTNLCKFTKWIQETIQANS

[10] = target: T1, recombinant N-terminal His-tag HGFA …; remark: listed apart in the source
[11] = target: T4, recombinant thrombin (#1473-SE-010, R&D …); remark: listed apart in the source
[12] = target: T2, activated hepsin (#4776-SE-010, R&D …); remark: listed apart in the source
[13] = target: T5, Factor Xa (#1063-SE-010, R&D Systems); remark: listed apart in the source
[14] = target: T3, matriptase (#3946-SE-010, R&D Systems); remark: listed apart in the source

X12-Leu-Arg-kbt [1-(mesitylsulfonyl)piperidin-4-yl Leu-Arg-kbt carbamate (8m)]
HGFA IC50 [1]: 8800 nM
Hepsin IC50 [2]: 110 nM
Matriptase IC50 [3]: > 20000 nM

X13-Leu-Arg-kbt [1-((2-fluorophenyl)sulfonyl)piperidin-4-yl Leu-Arg-kbt carbamate (8g)]
HGFA IC50 [1]: 18000 nM
Hepsin IC50 [2]: 70 nM
Matriptase IC50 [3]: 4500 nM

X11-Leu-Arg-kbt [1-((3-fluorophenyl)sulfonyl)piperidin-4-yl Leu-Arg-kbt carbamate (8j)]
HGFA IC50 [1]: > 20000 nM
Hepsin IC50 [2]: 70 nM
Matriptase IC50 [3]: 7500 nM

Ac-WLFR-kbt [Ac-WLFR-kbt, ZFH7064]
HGFA IC50 [4]: 266 nM
Calu-3 EC50 (human TMPRSS2): 150 nM
Hepsin IC50 [5]: 0.79 nM
Matriptase IC50 [6]: 12 nM

X5-Leu-Arg-kbt [1-acetyl-4-phenethylpiperidin-4-yl Leu-Arg-kbt carbamate (8c)]
HGFA IC50 [1]: > 20000 nM
Thrombin IC50 [7]: 7700 nM
Hepsin IC50 [2]: 0.5 nM
Factor Xa IC50 [8]: 2000 nM
Matriptase IC50 [3]: 70 nM

X9-Leu-Arg-kbt [1-((5-chloro-2-methoxyphenyl)sulfonyl)piperidin-4-yl Leu-Arg-kbt carbamate (8l)]
HGFA IC50 [1]: 6300 nM
Hepsin IC50 [2]: 60 nM
Matriptase IC50 [3]: 4000 nM

Ac-Leu-Leu-Arg-kt [Ac-LLR-kt, ZFH6201]
HGFA IC50 [4]: 506 nM
Calu-3 EC50 (human TMPRSS2): 349 nM
Hepsin IC50 [5]: 4.6 nM
Matriptase IC50 [6]: 56 nM

X1-Leu-Arg-kbt
HGFA IC50 [1]: 780 nM
Thrombin IC50 [7]: > 20000 nM
Hepsin IC50 [2]: 5 nM
Matriptase IC50 [3]: 90 nM

X8-Leu-Arg-kbt [1-((4-chlorophenyl)sulfonyl)piperidin-4-yl Leu-Arg-kbt carbamate (8i)]
HGFA IC50 [1]: 9000 nM
Hepsin IC50 [2]: 60 nM
Matriptase IC50 [3]: 2400 nM

Fmoc-Trp-Arg-kbt [FmocWRkbt]
KLK5 IC50 [9]: 4390 nM

X7-Leu-Arg-kbt [1-acetylpiperidin-4-yl Leu-Arg-kbt carbamate (8e)]
HGFA IC50 [1]: > 20000 nM
Hepsin IC50 [2]: 20 nM
Matriptase IC50 [3]: 640 nM

X4-Leu-Arg-kbt [1-(phenylsulfonyl)piperidin-4-yl Leu-Arg-kbt carbamate (8f)]
HGFA IC50 [1]: 8600 nM
Thrombin IC50 [7]: > 20000 nM
Hepsin IC50 [2]: 20 nM
Factor Xa IC50 [8]: > 20000 nM
Matriptase IC50 [3]: 810 nM

X10-Leu-Arg-kbt [1-((2,4-dinitrophenyl)sulfonyl)piperidin-4-yl Leu-Arg-kbt carbamate (8k)]
HGFA IC50 [1]: > 20000 nM
Hepsin IC50 [2]: 110 nM
Matriptase IC50 [3]: 10000 nM

Ac-MQFR-kbt [MM3130 Ac-MQFR-kbt]
HGFA (IC50 nM) [10]: 36.5 nM
Thrombin* (IC50 nM) [11]: > 20 nM
Hepsin (IC50 nM) [12]: 0.135 nM
Factor Xa* (IC50 nM) [13]: 342 nM
Matriptase (IC50 nM) [14]: 0.552 nM

B1: Cyclo(DMK)R-kbt, VD3173 (peptide)
peptide: Ac-DMKR-kbt
modifications: lactam 1-3; not fully specified; printed as Cyclo(DMK)R-kbt; also: N-terminal acetyl described as 6-acetamido
HGFA IC50 [4]: 3240 nM
Calu-3 EC50 (human TMPRSS2): 119 nM
Hepsin IC50 [5]: 5.9 nM
Matriptase IC50 [6]: 1 nM
HGFA (IC50 nM) [10]: 3240 nM
Thrombin* (IC50 nM) [11]: > 20000 nM
Hepsin (IC50 nM) [12]: 5.9 nM
Factor Xa* (IC50 nM) [13]: 1400 nM
Matriptase (IC50 nM) [14]: 0.98 nM

Fmoc-Pro-Arg-kbt [FmocPRkbt]
KLK5 IC50 [9]: 3680 nM

Ac-PQFR-kbt [MM3123 Ac-PQFR-kbt]
HGFA (IC50 nM) [10]: 75 nM
Thrombin* (IC50 nM) [11]: > 20 nM
Hepsin (IC50 nM) [12]: 0.136 nM
Factor Xa* (IC50 nM) [13]: 199 nM
Matriptase (IC50 nM) [14]: 0.316 nM

{2‑phenyl‑1‑(piperidin-4-yl)ethyl carbamate}-Leu-Arg-kbt [2-phenyl-1-(piperidin-4-yl)ethyl Leu-Arg-kbt carbamate (11b)]
HGFA IC50 [1]: 6000 nM
Hepsin IC50 [2]: 2 nM
Matriptase IC50 [3]: 20 nM

Ac-SKLR-kbt [Ac-SKLR kbt, ZFH7053]
KLK5 IC50 [9]: 2120 nM

Ac-IQFR-kbt [MM3116 Ac-IQFR-kbt]
HGFA (IC50 nM) [10]: 30.2 nM
Thrombin* (IC50 nM) [11]: > 20 nM
Hepsin (IC50 nM) [12]: 0.14 nM
Factor Xa* (IC50 nM) [13]: 792 nM
Matriptase (IC50 nM) [14]: 0.923 nM

X3-Leu-Arg-kbt [4-benzylpiperidin-4-yl Leu-Arg-kbt carbamate (8b)]
HGFA IC50 [1]: 1200 nM
Thrombin IC50 [7]: > 20000 nM
Hepsin IC50 [2]: 0.6 nM
Factor Xa IC50 [8]: 6500 nM
Matriptase IC50 [3]: 30 nM

Ac-DQKR-kbt (lactam 1-3; also: N-terminal acetyl described as 6-acetamido) [Cyclo(DQK)R-kbt, VD3152]
HGFA IC50 [4]: 16100 nM
Calu-3 EC50 (human TMPRSS2): 138 nM
Hepsin IC50 [5]: 22 nM
Matriptase IC50 [6]: 7.7 nM
HGFA (IC50 nM) [10]: 16100 nM
Thrombin* (IC50 nM) [11]: > 20000 nM
Hepsin (IC50 nM) [12]: 22.2 nM
Factor Xa* (IC50 nM) [13]: > 20000 nM
Matriptase (IC50 nM) [14]: 7.7 nM

Ac-KQLR-kbt [Ac-KQLR-kbt, ZFH7006]
HGFA IC50 [4]: 60 nM
Calu-3 EC50 (human TMPRSS2): 78 nM
Hepsin IC50 [5]: 0.17 nM
Matriptase IC50 [6]: 1.1 nM
KLK5 IC50 [9]: 1790 nM

Ac-Gln-Phe-Arg-kbt [MM3144 Ac-QFR-kbt]
HGFA (IC50 nM) [10]: 13.8 nM
Thrombin* (IC50 nM) [11]: > 20 nM
Factor Xa* (IC50 nM) [13]: 1.4 nM

Ac-[dW]-Phe-Arg-kbt [Ac-dWFR-kbt, PK-1-89A1]
HGFA IC50 [4]: 346 nM
Calu-3 EC50 (human TMPRSS2): 32 nM
Hepsin IC50 [5]: 100 nM
Matriptase IC50 [6]: 29 nM

Ac-Trp-Phe-Arg-kbt [Ac-WFR-kbt, PK-1-102A1]
KLK5 IC50 [9]: > 20000 nM

Ac-GQFR-kbt [MM3122 Ac-GQFR-kbt]
HGFA (IC50 nM) [10]: 32.5 nM
Thrombin* (IC50 nM) [11]: > 20 nM
Hepsin (IC50 nM) [12]: 0.194 nM
Factor Xa* (IC50 nM) [13]: 700 nM
Matriptase (IC50 nM) [14]: 0.314 nM

Ac-LQFR-kbt [MM3131 Ac-LQFR-kbt]
HGFA (IC50 nM) [10]: 98.2 nM
Thrombin* (IC50 nM) [11]: > 20 nM
Hepsin (IC50 nM) [12]: 0.247 nM
Factor Xa* (IC50 nM) [13]: 219 nM
Matriptase (IC50 nM) [14]: 1.8 nM

Ac-SQLR-kt [Ac-SQLR-kt, ZFH6138]
KLK5 IC50 [9]: 3940 nM

Leu-Leu-Arg-{kbt-Val-NH2} (also: N-terminal cap inconsistent in filing (H or Ac)) [H-LLR-kbt V-amide ZFH7182]
HGFA IC50 [4]: 44 nM
Calu-3 EC50 (human TMPRSS2): 2060 nM
Hepsin IC50 [5]: 0.01 nM

X1-[Cha]-Arg-{kbt″} [4-phenylpiperidin-4-yl Cha-Arg-kbt carbamate (8d)]
HGFA IC50 [1]: > 20000 nM
Thrombin IC50 [7]: > 20000 nM
Hepsin IC50 [2]: 90 nM
Factor Xa IC50 [8]: 9000 nM
Matriptase IC50 [3]: 2100 nM
